Test results taken from PMC8355190.

Target: PKM2 (human (endogenous in H1650)) (UniProt P14618)
Test: cross-linking

Chain of PKM2, P14618 1-531 (enzyme; other documents disagree on this pair) (P14618 whole entry): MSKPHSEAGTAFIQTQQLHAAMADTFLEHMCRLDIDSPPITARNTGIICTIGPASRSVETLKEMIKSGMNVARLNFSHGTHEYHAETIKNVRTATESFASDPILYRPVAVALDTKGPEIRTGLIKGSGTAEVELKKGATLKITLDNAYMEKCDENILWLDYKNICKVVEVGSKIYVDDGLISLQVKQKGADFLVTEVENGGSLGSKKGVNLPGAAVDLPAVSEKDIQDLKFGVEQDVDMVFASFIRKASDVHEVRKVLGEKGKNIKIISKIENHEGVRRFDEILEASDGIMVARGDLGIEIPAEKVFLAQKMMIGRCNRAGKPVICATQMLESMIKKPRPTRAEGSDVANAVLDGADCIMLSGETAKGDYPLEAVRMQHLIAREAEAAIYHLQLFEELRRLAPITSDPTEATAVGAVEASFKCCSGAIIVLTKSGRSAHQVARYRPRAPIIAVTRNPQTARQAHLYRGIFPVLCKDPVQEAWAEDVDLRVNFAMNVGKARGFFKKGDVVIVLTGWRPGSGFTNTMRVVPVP

For “PKM2, P14618 1-531 (enzyme; other documents disagree on this pair)”, the stoichiometry N was 2.
